Measured values published in the nanobody polyreactivity screen of Harvey et al. (2022).

Assay: yeast display, Sf9 membrane polyspecificity reagent, FACS + sequencing; frameworks hold sequencing errors
In short: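 Synthetic nanobody libraries on Saccharomyces cerevisiae BJ5465 were galactose-induced for 36–48 hours, stained 1 hour at 4 °C with 10% biotinylated, detergent-solubilized Sf9 membrane reagent and enriched on streptavidin microbeads. FACS then separated cells into low and high (top ~1%) gates by anti-HA (expression) and streptavidin (reagent binding) fluorescence. Genes were colony-PCR amplified, MiSeq 2 × 250 sequenced and CDR-length filtered. A clone's polyreactivity label is that of its gate of origin.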

Sequence | polyreactivity (PSR sort gate)
QVQLVESGGGLVQAGGSIRLSCAASGSISAEKSMGRDRQAPGKERELVAAITSGGSTDYADSVKGRFTISRDNAKNNVYLQMNSLKPVDTAVSYCAASGRVGPGYWYDYWGQGTQVTVSS | low polyreactivity
QVQLVESGGGLVQAGGSIRLSCAASGSISPQNVMGWYRQAHGKERELVAAITGGGSTNYADSVKGRFTISRDNAKNTVYLQMNSLIPEDTAVYYCAADGRYAYGYNHWGQGTQVTVSS | low polyreactivity
QVQLVESGGGLVQAGGSIRLSCAASGSSFVSYAMGWYRQAPGKERELVATISWRGGSTYYADSVKGRFTISRDNAMNTVYLQMNSLKTEDTAVYYCAADVWHSQYYYGYEYWGQGTQVTVSS | low polyreactivity
QVQLVESGGGLVQAGGSIRLSCAASGSTFCVNAMGWDRQAPGKERELVAVITFTGSRTYYADSVKGRFTISRDNAKNTVYLQMNSLKPEDTAVYYCAADRRRVLYKFDYWGQGTQVTVSS | low polyreactivity
QVQLVESGGGLVQAGGSIRLSCAASGSTFRLYARGWYRQAPGKEREFVAAISFRGGSTYYADSVKGRFTISRDYSKNTVYLQMNSLKPEDTAVYYCNADYYYYYSWFNYWGQGTQVTVSS | high polyreactivity
QVQLVESGGGLVQAGGSIRLSCAASGSTIGKNVMGWYRQAPGKERELVAAISARGGRTYYGDSVKGRFTISRDNAKNTVYLQMNSLKPVDTAVYYCNTERSYTGTGRYHSSTAYGYWGQGTQVTVSS | high polyreactivity
QVQLVESGGGLVQAGGSIRLSCAASGSTSYIKVMGWYRQAPGKEREMVATISSSGGNTYYADSVKGRFTISRDNAKNTVYLQMNSLKPEDTAVYYCAAKVRVWYYRMDSWGQCTQVTVSS | low polyreactivity
QVQLVESGGGLVQAGGSIRLSFPASGRTFAYNAMGRYRPAPGKERELVADITSGGSTYYADSVKGRFTISRENAKNTVYLQMNRLKREDTAVYYCAAYPQFWYWDYNYWGQGTQVTVSS | high polyreactivity
QVQLVESGGGLVQAGGSIRLTCAASGRIYEIYTMGWYRQATGKETEFVAGITWSGGSTYYADSVKGRFTISRDNAKNTFYLQMNSLKPEDTAVYYCATDEVYWTGYAPSLFDYWGQGTQVTVSS | low polyreactivity
QVQLVESGGGLVQAGGSIRLTCAASGSIFVFYAMGWYRQAPGKEREFVATITWSGTSTYYADSVKGRFSISRDNAKNTVYLQMNSLKPEDTAVYYCAARYLGGRRSGDYSRYYWGQGTQVTVSS | high polyreactivity
QVQLVESGGGLVQAGGSIRLTCTPSGIIFGTYAMGWYIQAPGKERELVAAISSSGVSTYYADSVKGRFTISRDNAKNTVYLQMNSLKPEDTAVYYCNARGSNGRSDYDYWGQCTQVTVSS | high polyreactivity
QVQLVESGGGLVQAGGSLCLSCAASGIFVYNAMVWYRQAPGKEREFVAAINKSGASTFYADSVKGRFTISRDNAKNTVYLQMNSLKPEDTAVYYCRERDYWGQGTQVTVSS | low polyreactivity
QVQLVESGGGLVQAGGSLGLSCAASGFTFDLYAMGWYRQAPGKERALVAAISWSGGSTRYADSVKGRFTISRDYAKNTVYLQMNSLKPEDTAVYYCARQPRLYFKGKLYGYWGQGTQVTVSS | high polyreactivity
QVQLVESGGGLVQAGGSLGLSCAASGFTFHNYAMGWYRQAPGKERELVAAITWDGGSTYYAVSVKGRFTISRDKAKNTVDLQMNSLKPEDTAVYYCALDPYYYYYGDYNFDYWGQGTQVTVSS | high polyreactivity
QVQLVESGGGLVQAGGSLGLSCAASGRSLIWYAMGWYRQAPGKERELVAAITSGGRTYYADSVKGRFTISRDNAKKTVYLQMNSLKPEDTAVYYCNKVGRDPGRDFWGQGTQVPVSS | high polyreactivity
QVQLVESGGGLVQAGGSLGLSCAASGRTFANNAMGWYRQAPGKERELVARISNSGSTNYADSVKGRFTISRDNAKNTVYLQMNSLKPEDTAVYDCAARIVRLYSRYDYWGQGTQETVSS | low polyreactivity
QVQLVESGGGLVQAGGSLGLSCAASGRTFQQNAMGWYRQAPGKERELVAALNSRGGRTYYADYVKGRFTISRDNAKNTVYLQMNSLKPEDTAVYYCAARYYWGQGTEVTVSS | high polyreactivity
QVQLVESGGGLVQAGGSLGLSCAASGRTFSYYAMGWYRQAPGKERELVAAISASGGRTYYADSVKGRFTISRDNAKNTDYLQMNSLTPEDTAVYYCAAGSYQRYAFDYWGQGTQVTVSS | high polyreactivity
QVQLVESGGGLVQAGGSLGLSCAASGSIFSRNTMGWYRPARGKERELVAAITSSGGNTYYADSVKGRFTISRDNAKNTVYLQMNSLKPDDTAVYYCAADVAQVGYQVGDSEIYPGYEDWGQGSQVTVSS | low polyreactivity
QVQLVESGGGLVQAGGSLGLSCAASGYTFDHNAMGWYRQAPGKERELVAAINWSGGSTYYADSVKVRFTISRDNAKNTVYLQMKSLKPEDTAVYYCARYRVLASRVDYWGQGTQVTVSS | high polyreactivity
QVQLVESGGGLVQAGGSLGLSCAATGSIFNPYAMGWYRQAPGKVRELVAAISSTGSTYYADSVKGRFTISRDNAKNTVYLQMISLKPEDTAVYYCAADWYWYWFSTYDYWGQGTEVTVSS | low polyreactivity
QVQLVESGGGLVQAGGSLLLSCAASGFIFGPYALGWYRQAPGKERELVAAITWRGGRTYYADSVKGRFTISRDNAKNTVYLQMNSLKPEDTAVYYCAADYPYAMDYWGQGTQVTVSS | high polyreactivity

Sequence | polyreactivity (PSR sort gate)
QVQLVESGGGLVQAGGSLLLSCAASGFIFPPYDMGWYRQAPGKEMELVAGISDVGTTYYADSVKGRFTISRDNAKNTVYLQMNSLKPEDTAVYYCAAESQGDDQFWTGGYDSWGQGTQVTVSS | low polyreactivity
QVQLVESGGGLVQAGGSLLLSCAASGGTFYYYAMGWYRQAPGKERELVASISSRGGSTYYADSVKGRFTISRDNAKNTVYLQMNSLKPEDTAVYYCAARSLYRGFGYWGQGTQVTVSS | high polyreactivity
QVQLVESGGGLVQAGGSLLLSCAASGGTFYYYTMGWYRQAPGKERELVAAISWSGGSTYYADSVKGRFTISRDNAKNTVYLQMNSLKPEDTAVYYCAALAYVSDYDYWGQGTQVTVSS | high polyreactivity
QVQLVESGGGLVQAGGSLLLSCAASGITFFTYAKGWYRQAPGKERELDAAISGSGGSTYYADSVKGRFTISRDNAKKTVYLQMNSLKPEDTAVYYCAAERENGDHYRYYYWGQGTQVTVSS | low polyreactivity
QVQLVESGGGLVQAGGSLLLSCAASGITFPKYAMGWYRQAPGKERELVAAITKSGGSTYYADSVKGRFTISRDHAKNTVYFQMNSLKPEDTAVYYYAARPRYGEYDYWGQGTQVTVSS | high polyreactivity
QVQLVESGGGLVQAGGSLLLSCAASGRTFAPYAMGWYRQAPGKERELVAAISSGGGNTYYADSVKGRFTISRDNAKITVYLHMNSLKPEDTAVYYCNAAQRRGGLGYSGQGTQVTVSS | high polyreactivity
QVQLVESGGGLVQAGGSLLLSCAASGSIFDFYGMGWDRQAPGKERELVATITGTGGGTYYADSVKGRFTISRDNAKNTVYLKMNSLKPEDTAVYYCAADYPYGYWRGLFYYWGQGTQVTVSS | low polyreactivity
QVQLVESGGGLVQAGGSLLLSCAASGSTCSYYAMGWYRQAPGKERQLVAAINRSGGSTYYADSVMGRFTISRDNAKNTVYVQMNSLKPEDTAVYSCAALRSKTVSYDRYDYWGQGTQVTVSS | high polyreactivity
QVQLVESGGGLVQAGGSLLLSCAASGSTFIWNAMGWYRQAHGKERELVAAISSGGSTYYADSVKGRFTISRDNAKNTVYLQMNSLKPEDTAVYYCAAEYVYNVWEQRYAVYSTDDYWGQGTQVTVSS | low polyreactivity
QVQLVESGGGLVQAGGSLLLSCAASGSTFNDNAMGWYRQAPGKERELVAAIDSGGITNYADSVKGRFTISRDNAKNTVYLQMNSLKPEDTAVYYCAVEGEYLTPSGRYRLDYWGQGTEVTVSS | low polyreactivity
QVQLVESGGGLVQAGGSLLLSCAASGSTFSFYAMGWYRQAPGKERELVAAIDSGGRTKYADSVKGRFTISRDNAKNTVYLQMNSLKPEDTAVYYCAAVFRGLWLYDYWGQGTQVTVSS | low polyreactivity
QVQLVESGGGLVQAGGSLLLSCAASGSTFVVNAMAWYRQAPGKERELVAAIRNSGSTTYADSVKGRFTISRDNAKNTVYLQMNSLKPEDTAVYYCATDISATVTAVQINPYDYWGQGSQVTVSS | low polyreactivity
QVQLVESGGGLVQAGGSLLLSCAASGSTFYKNAMGWYRQAPGKERELVAAISSGGSTYYADSVKGRFTISRDNAKNTVYLQMNSLKPEDTAVYYCAADYYYIVDYWGQGTQVTVSS | high polyreactivity
QVQLVESGGGLVQAGGSLLLSCAASGYIFWSNTMGWYRQAPGKERELVAAISQSTASTYYADSVKGRFTISRDNAKNTVYLQMNSLKPEDTAVYYCAAYYNFGDYEYDYWGQGTQVTVSS | low polyreactivity
QVQLVESGGGLVQAGGSLLLSCAPSGRTFPLNAMGWSRQAPGKERELVAAITWSGGRTYYADSVKGRFTISRDNAKNTVYLQMNSLKPEDTAVYYCAAKRTTWKIQSGYDYWGKGTQVTVSS | low polyreactivity
QVQLVESGGGLVQAGGSLLLSCDASGLTFGYYVMGWYRQAPGKERELVASITNGGGSTYYADSVKGRFTISRDYAKNTVYLQMNSLKPEDTAVYYCAAGSYLRKFDYWGQGTQVTVSS | high polyreactivity
QVQLVESGGGLVQAGGSLLLSCDASGNTFIENDMGWYIQAHGKERELVDPIDTGGYTYYADSVKGRFTISRDNAKNTVYLQMNSLKPDDTAVYYCTAVGLYLYRYKFGYLGKIGPGYDYWGQGTQVTVSS | low polyreactivity
QVQLVESGGGLVQAGGSLLLSSAPTGITFEGYSMGWSRQAPGKERELVAAIRSSGTSTYYADSVKGRFTISRDNAKNTVYLQMNSLKPDDTAVYYCNRARSSSRYDYWGQGTQVTVSS | low polyreactivity
QVQLVESGGGLVQAGGSLLLSWAASGRSFKYNAMGWDRQAPGKERELVAAISGSGGRTYYADSVKGRFTISRDNAKNTVYLQMNSLIPEDTAVYYCNARYVLYKPDYHRGGRMGYWGQGTQVTVSS | high polyreactivity
QVQLVESGGGLVQAGGSLPLSCAASGFISWGNAMGWSRQAPGKARELVAAISWRDARTYYADSVKGRFTISRDNAKNTVYLQMNSLKPEATAVYYCNAVTAYVSRNLGGYRWFDYWGQGTQVTVSA | low polyreactivity
QVQLVESGGGLVQAGGSLPLSCAASGRIFAFNVMGWYRQAPGKERELVAAISTRDGSTYYADSVKGRFTISRDNAKNTVYLQMNSLTPEDTAVYYCNAVVRYYDWGYWDYDYWGQGTQVTVSS | low polyreactivity
